Ends that are not written are not given here. * marks the point of attachment. For = O=C*

From publication PMC3310821, “Inactivation of Staphylococcal Phenol Soluble Modulins by Serum Lipoprotein Particles” (PLoS Pathogens, 2012) come the findings set out here.

The data set concerns the molecule itself. Nature of the data set: SEC; 100 µg/ml PSMα3-FITC on Superdex 200 10/300GL equilibrated with PBS; OD492 nm. A general note: In gel filtration, larger molecules generally elute earlier.

B1: FITC-labeled PSMα3 (peptide)
peptide: For-MEFVAKLFKFFKDLLGKFLGNN
modifications: also: FITC label, site not given here
notes: labeled by incubating 1 mg/ml PSMα3 with 100 µg/ml FITC in 0.1 M sodium carbonate buffer pH 9.6; also called PSMα3-FITC
In the case of B1, the binding result was “binds”.
